Results on two molecules are retold here after patent US20210340225A1 (HARBOUR ANTIBODIES, published 2021).

Assay [1] concerns the target T1, SARS-CoV-2 spike S1B receptor binding domain (SARS2-S1B), residues 329-538, Strep-tagged (SARS-CoV-2 (strain Wuhan-Hu-1), UniProt P0DTC2 329-538). The assay can be described thus: ELISA, antigen coated at equimolar amounts, mAb titrated; ELISA EC50, not BLI.
The target in assay [2] is WIV16-S with 19-a.a. cytoplasmic tail truncation, on pseudotyped VSV particles (bat SARS-like coronavirus WIV16). Nature of the assay: cell-based or functional assay.
The target of assay [3] is SARS-S with 28-a.a. cytoplasmic tail truncation, on pseudotyped VSV particles (SARS-CoV, UniProt P59594 14-1227). Nature of the assay: cell-based or functional assay.
Assay [4] has as its target SARS2-S with 18-a.a. cytoplasmic tail truncation, on pseudotyped VSV particles (SARS-CoV-2, UniProt P0DTC2 14-1255). The assay can be described thus: cell-based or functional assay.
The target in assay [5] is T2, SARS-CoV-2 spike ectodomain (SARS2-Secto), residues 1-1,213, with C-terminal trimerization motif and Strep-tag (SARS-CoV-2 (strain Wuhan-Hu-1), UniProt P0DTC2 14-1213). Nature of the assay: ELISA, antigen coated at equimolar amounts, mAb titrated.
Assay [6] concerns the target T3, SARS-CoV spike [change] receptor binding domain (SARS-[change]), residues 325-533, Strep-tagged (SARS-CoV, UniProt P59594 325-533). Described as above.
The target of assay [7] is T2, SARS-CoV-2 spike ectodomain ….
Assay [8] addresses T3, SARS-CoV spike [change] receptor ….
Assay [9] has as its target T1, SARS-CoV-2 spike S1B receptor binding ….
Assay [10] concerns the target T3, SARS-CoV spike [change] receptor …. The source holds these as a separate data set.
Assay [11] has as its target T1, SARS-CoV-2 spike S1B receptor binding …. The source holds these as a separate data set.
Assay [12] concerns the target T2, SARS-CoV-2 spike ectodomain …. This is another data set of the same source.
Assay [13] deals with T3, SARS-CoV spike [change] receptor …. The source holds these as a separate data set.
The target in assay [14] is T1, SARS-CoV-2 spike S1B receptor binding …. This is another data set of the same source.
Assay [15] addresses T3, SARS-CoV spike [change] receptor …. The assay can be described thus: ELISA, serial dilution of supernatant after transfection.
Assay [16] has as its target T1, SARS-CoV-2 spike S1B receptor binding …. Described as above.

B1: 47D11 fully human IgG1 monoclonal antibody (antibody, V domains shown)
VH: QVQLQESGPGLVKPSETLSLTCSVSGGSISSHYWSWIRQPPGKGLEWIGYIYYSGSTNHNPSLKSRVTISVDTSKNQFSLKLSSVTAADTAVYYCARGVLLWFGEPIFEIWGQGTMVTVSS
VL: EIVMTQSPATLSVSPGERATLSCRASQSVSSSLAWYQQKPGQAPRLLIYGASTRAPGIPARFSGSGSGTEFTLTISSLQSEDFAVYYCQQYNNWPLTFGGGTKVEIKR
With B1, the results for the EC50 in assay [1], in [5] and in assay [6] were 0.03 µg/mL, 0.15 µg/mL and 0.02 µg/mL, respectively. In addition, the “IC50, neutralization of WIV16-S pseudotyped VSV” value in assay [2] came to 0.165 µg/mL. For the same molecule, the “IC50, infection of VeroE6 cells with SARS-S pseudotyped VSV (luciferase)” value in assay [3] came to 0.06 µg/mL. Further, the “IC50, infection of VeroE6 cells with SARS2-S pseudotyped VSV (luciferase)” value in [4] was 0.08 µg/mL. In addition, the figures for the Kd in assay [7], in [8] and in assay [9] were 10.8 nM, 16.1 nM and 9.6 nM, respectively. Besides, the “EC50 (read off the curve)” value in assay [10] and in assay [11] was approximately 0.1 µg/mL in each case. In addition, the koff in assay [12] was found to be 9.85e-05 s⁻¹; in assay [13], 0.00021 s⁻¹; in assay [14], 0.000137 s⁻¹. Besides, the kon in [12] turned out to be 9770 M⁻¹ s⁻¹; in assay [13] it was 20000 M⁻¹ s⁻¹; in assay [14], 15100 M⁻¹ s⁻¹.

B2: 49F1 VH41 VL42-4 (antibody, V domains shown)
VH: QVQLVQSGAEVKKPGSSVKVSCKASGGTFSSYAINWVRQAPGQGLEWMGGIIPIFGTANSAQKFQGRVTITADKSTSTAYMELSSLRSEDTAVYYCAREAGIPVAGLADWGQGTLVTVSS
VL: DIQMTQSPSTLSASVGDRVTITCRASQSISSYLNWYQQKPGKAPKLLIYKASSLESGVPSRFSGSGSGTEFTLTISSLQPDDFGTYYCQQYNSYYTFGQGTKLEIK
In the case of B2, the binding result in assay [15] and in [16] was “no binding (tested: undiluted supernatant)” each time.
